Measurements as given in the supplement of paper PMC9170038.

System: MS2 coat protein
Test: apparent KD of MS2 coat protein; designed switch direction (-1 OFF switch, 1 ON switch): 1; higher = weaker reporter binding
Outline: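 Designed RNA switches were transcribed on Illumina chips by stalled E. coli RNA polymerase and titrated with SNAP-549-labelled MS2 coat protein from 0.7 or 1.5 nM, doubling to 3 µM. Step length ran from 0.8–1.5 h at the lowest concentration to 10–20 min at the highest. The apparent KD is the median over clusters for each design, from curve-fitted normalised cluster fluorescence.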

[1] = Eterna round: R95, input ligand: FMN 200 uM
[2] = Eterna round: R95, input ligand: microRNA oligo, concentration not stated
[3] = Eterna round: R95, input ligand: none
[4] = input ligand: microRNA oligo, concentration not stated

Row | Sequence | apparent KD of MS2 coat protein [1] | apparent KD of MS2 coat protein [2] | apparent KD of MS2 coat protein [3] | apparent KD of MS2 coat protein (input ligand: FMN 200 uM) | apparent KD of MS2 coat protein [4] | apparent KD of MS2 coat protein (input ligand: none)
1 | CAGCACUGUCGAGAGGAUAUGCGGUGAUGGACAUGAGGAUCACCCAUGUUAGCGACAGCAUCACGGCAGAAGGCUCUACUGUUGC [Soteed Omei mod 34] (puzzle: Same State 2) | 12.6 nM | 12.2 nM | 14.3 nM | – | – | –
2 | AGAAACAAAGGCUGAAAUAAUACAUGAGGAUCACCCAUGUCACAGGAUAUCCAGAUAAUAUUCGAGGAGAAGGGUGCAGCCAAC [Esanusdiat] (Eterna round: R96, puzzle: Same State NG 3) | – | – | – | 19.1 nM | 59.6 nM | 79.7 nM
3 | GGCCUCUGUCAAGGAUAUGCUACCGUUUCGGUAGCAGAAGGUGAUCACAUGCGGGUCACCCAUGUUUAGGCCAACAGGCCCGCC (Eterna round: R96, puzzle: Same State NG 1) | – | – | – | 63 nM | 1.08 nM | 3.57 nM
4 | GGAGAGAGAGCGCAGGAUAUUUGAGGAGAAACAUGAGGAUCACCCAUGUGAGAGAGAGAGGAGAAAGAGAAGGGUGAGAGAGAGG [Altered State 2-15 - Jieux - Same State 2] (puzzle: Same State 2) | 41.9 nM | 52.9 nM | 57.8 nM | – | – | –
5 | AUAAAUAACACAGGAUAUCCACACGAAUAGUGCGGAGAAGGGUGAACGUCGGCUCUCGCCAACAUGAGGAUCACCCAUGUAAAA [Tediissobe] (Eterna round: R96, puzzle: Same State NG 1) | – | – | – | 64.4 nM | 12.7 nM | 31.5 nM
6 | AAAGGCAUGGCACAGGAUAUGCAAUAAAAGACAUGAGGAUCACCCAUGUACCCGAGAAACGGGCAGCAGAAGGGUGUAAAAGAAA [Orrere] (puzzle: Same State 2) | 134 nM | 115 nM | 447 nM | – | – | –
7 | AUUAAUAAUCGAGGAUAUCACGUCGUUUAGACGUGAGAAGGCGAUCAUAACAUGAGGAUCACCCAUGUAUUACAUGAAGUUAAU [SSNG1/4-B3] (Eterna round: R96, puzzle: Same State NG 1) | – | – | – | 37.8 nM | 26.3 nM | 39.3 nM
8 | AUUUAACAAGCUUUUUGCUCGUCUUAUAAACAUGAGGAUCACCCAUGUAAUAGCGUGAGAGUAAAUUUUUAAAUAAU [JMF 95] (puzzle: Sensor for hsa-mir-208a) | 14.5 nM | 38.9 nM | 14.8 nM | – | – | –
9 | CCCUGAGGUAACCUACAGGGACAUGAGGAUCACCCAUGUACACAGGAUAUCGAAGGCUCCGCCCUCGAGAAGGGUGAUCAAACU [Leuslein] (Eterna round: R96, puzzle: Same State NG 3) | – | – | – | 1520 nM | 266 nM | 109 nM
10 | UUUAGGUACGGGCAGGAUAUGUAUUAAAAUACAUGAGGAUCACCCAUGUGCGGGUAUAACACCCGACAGAAGGGCCAAUCGUACC [Laonerce - 10] (puzzle: Same State 2) | 25.1 nM | 136 nM | 251 nM | – | – | –
11 | CUCUCACAUGAGGAUCACCCAUGUCCACCUCCGUGAGGAUAUAGAUAAUAAAUACAUUUACUAGAAGGCGCAUCCC [Bay] (puzzle: Same State 1) | – | 263 nM | – | – | – | –
12 | UUAUCUCAGACAUGAGGAUCACCCAUGUUUUUUUGUCUUAGACAGGAUAUAGUAGUAUCGAAAUACUAGAAGGGUCAUUUUAUU [JR_SSNG3_Sub023] (Eterna round: R96, puzzle: Same State NG 3) | – | – | – | 18.4 nM | 23.5 nM | 28.9 nM
13 | CGUCCAGCCUGAGCUGGACAAAAGCAUGUACAUGAGGAUCACCCAUGUUCAUGUACAAGCUUUUUGCUCGUCUUAUG [salish99_208a_r3_054] (puzzle: Sensor for hsa-mir-208a) | 662 nM | 17.9 nM | 1110 nM | – | – | –
14 | GAGAGAGGGUGAGGAUAUUUGGUGAUAAUGAUGGGAGAAGGCACAGACAUGAGGAUCACCCAUGUGGGAAUAAUCCAGAGAGAG [Parity 11 - Jieux - Same State NG 1] (Eterna round: R96, puzzle: Same State NG 1) | – | – | – | 582 nM | 182 nM | 410 nM
15 | CGUAGGUAGCUGGAGGAUAUCCGAGUGGUAACAUGAGGAUCACCCAUGUGAUGAAAGGAACAUGAGGAGAAGGCUAGCUGCCUGC [JL-ss2-3.11 JL mod] (puzzle: Same State 2) | 15.4 nM | 29 nM | 30.9 nM | – | – | –
16 | AUACAGGAGCCACAUGAGGAUCACCCAUGUGACACGCAAAUGAAGGAUAUCCGACUCCAGACGAGGGAGAAGGUCACGGCGGGC [Eternabot solution 13] (Eterna round: R96, puzzle: Same State NG 3) | – | – | – | 16.6 nM | 11.5 nM | 20.1 nM

Row | Sequence | apparent KD of MS2 coat protein [1] | apparent KD of MS2 coat protein [2] | apparent KD of MS2 coat protein [3] | apparent KD of MS2 coat protein (input ligand: FMN 200 uM) | apparent KD of MS2 coat protein [4] | apparent KD of MS2 coat protein (input ligand: none)
17 | AAUUAAGAUUGAGGAUAUCACGUCGUUUAGACGUGAGAAGGCGAUCAUAACAUGAGGAUCACCCAUGUAUUACAUGAAUUAAUU [SSNG1/5-B3] (Eterna round: R96, puzzle: Same State NG 1) | – | – | – | 17.8 nM | 20 nM | 34 nM
18 | AGCCGAGACUGAGGAUAUAGAUAUCUACAUGAGGAUCACCCAUGUAGCAACACGUGGUAGUGAUUCUAGAAGGCGGCUCGGCGC [Omei SS(NG)2 Cv6] (Eterna round: R96, puzzle: Same State NG 2) | – | – | – | 19.2 nM | 66.2 nM | 83.7 nM
19 | AGGGAGGAAGCUGAGGAUAUCGUAAGGAGGACAUGAGGAUCACCCAUGUGUGUGGAAUUGGAGGACGAGAAGGCAGAGGAGUGGG [JR_SS2_Sub054] (Eterna round: R96, puzzle: Same State 2) | – | – | – | 40.5 nM | 35 nM | 38.4 nM
20 | UUACAGCACGGGUAGGAUAUGUAGGGUGGUACAUGAGGAUCACCCAUGUAUCCACCCUUCUAACGGCAGAAGGGCCUGUCGCUGC [Riarve] (Eterna round: R96, puzzle: Same State 2) | – | – | – | 28.3 nM | 11.2 nM | 27.5 nM
21 | AAUUAUUAACAUGAGGAUCACCCAUGUAUUACUUCAUGUUUUUGCUCGUCUAUUAUUAUUAUUAUUAUUAUUAUUAA [Most simple design] (puzzle: Sensor for hsa-mir-208a version 2) | 282 nM | 40.1 nM | 340 nM | – | – | –
22 | GUUUCAUCGAAAGGAUAUGUAUUGAUUGCCAUUGCAGAAGGUUCUCAGACAUGAGGAUCACCCAUGUCAAGCGGAAACGUAGUA [Eternabot solution 37] (Eterna round: R96, puzzle: Same State NG 1) | – | – | – | 20.1 nM | 15.4 nM | 47.6 nM
23 | UUCCCAGCGGGAGGAUAUGGUGCCUUGUUGGUGCUAGAAGGUCCAACAUGAGGAUCACCCAUGUGGGAGUGGUCGAAAGACCUC [SS NG10LRO09] (Eterna round: R96, puzzle: Same State NG 1) | – | – | – | 224 nM | 186 nM | 318 nM
24 | UCUUGGUUUUUGCUCGUUUUUUGUGUUGAACAUGAGGAUCACCCAUGUAUUGUACGGUCCAGUUUAAUAAUGGUCCG [JMF 30] (puzzle: Sensor for hsa-mir-208a) | 23.4 nM | 14 nM | 25 nM | – | – | –
25 | GAGAGACGAUUAGGAUAUACAGUGAUAAUGAUAGUAGAAGGAAUUGACAUGAGGAUCACCCAUGUAGGACUAAUCCAGAGAGAG [Parity 27 - Jieux - Same State NG 1] (Eterna round: R96, puzzle: Same State NG 1) | – | – | – | 46 nM | 36.4 nM | 52.2 nM
26 | AGCUAUUACGAAGGAUAUUGUGACAUGAGGAUCACCCAUGUCUUCAUGAUUUAUUGUGAUCACGUCGAGAAGGUUGUACUAACA [SameState NG2 #28] (Eterna round: R96, puzzle: Same State NG 2) | – | – | – | 50.5 nM | 56.3 nM | 57.6 nM
27 | GCUGCAAUUAACGCCUACAUGAGGAUCACCCAUGUAUGUAGGCAGGAUAUCGUUUGCUUUGCAAACGAGAAGGGCUGUAGUAGC [JL SSNG3 1.13] (Eterna round: R96, puzzle: Same State NG 3) | – | – | – | 67.2 nM | 84.5 nM | 108 nM
28 | AUAAUAAUAACUGAGGAUAUGUUGAUAAAGACAUGAGGAUCACCCAUGUGAAAUAAAAUAAUAAUACAGAAGGCAGAAUAAUAAA [JMF's solution 1] (puzzle: Same State 2) | 23 nM | 29.7 nM | 25.7 nM | – | – | –
29 | CUGGAAAACACAGGAUAUACCCGUGAAUCACGGGUAGAAGGGUGAAACAUGAGGAUCACCCAUGUUACCUCCCAAGGGAGGAUU [Zaleisge] (Eterna round: R96, puzzle: Same State NG 1) | – | – | – | 432 nM | 518 nM | 946 nM
30 | GCCAACUCAUGAGGAUAUGGCACCUUAAUGGUGCCAGAAGGCAUGUCUAUUGACAUGAGGAUCACCCAUGUAUUUUUGUUGGCA [Fiskers NG1ss - 26] (Eterna round: R96, puzzle: Same State NG 1) | – | – | – | 120 nM | 750 nM | 1210 nM
31 | GCCAUCGCAUGAGGAUAUGGCACCGAAACGGUGCCAGAAGGCAUGUCGUAAGACAUGAGGAUCACCCAUGUAGUUAAGAUGGCA [Mat - Same State NG 1 - JL mod - D91] (Eterna round: R96, puzzle: Same State NG 1) | – | – | – | 215 nM | 229 nM | 907 nM
